Data set [1] addresses T1, thrombin-catalyzed activation of protein C (Homo sapiens, UniProt P00734). Nature of the data set: Activity to promote the activation of protein C (Example 9-(4)). Format: biochemical. The settings on record: peptide solution 10 nM, thrombin 15 nM, protein C 3.2 μM, 37° C., one hour. The procedure:
With respect to the polypeptide purified in Example 9-(3), the activity to promote the activation of protein C is measured according to the following method. That is, 10 μl of a peptide solution (10 nM), 10 μl of thrombin (15 nM), 10 μl of protein C (3.2 μM), 10 μl of 10×Assay buffer [0.5M Tris HCl (pH 7.5) containing 1% BSA, 1M NaCl and 20 mM CaCl2 ] and 60 μl of distilled water are mixed together. The mixture is reacted at 37° C. for one hour, and antithrombin III and hepalin are added at final concentrations of 100 nM and lu/ml, respectively, thereby stopping the reaction. To measure the concentration of activated protein C, the concentration of AMC ([…]) liberated from a 200 μM substrate of Boc-Leu-Ser-Thr-Arg-MCA in a buffer containing 0.05M Tris HCl (pH 8.0) and 0.1M CsCl is measured at an excitation wavelength of 380 nm and a measuring wavelength of 440 nm.

The target of data set [2] is T1, thrombin-catalyzed activation of protein C. Briefly: Assay of the activity to promote the thrombin-catalyzed activation of protein C (Example 1-(3), fluorogenic substrate Boc-Leu-Ser-Thr-Arg-MCA). Format: biochemical, bovine. Also on record: 3 μl of thrombin (manufactured and sold by Sigma Chemical Company, catalog No. T-6759, 20 ng/μl); purchased Sigma Chemical Company T-6759. The settings on record: for calcium ion concentration at which the activity is highest: activation of protein C, calcium ion 0 to 5 mM; for activity to promote the thrombin-catalyzed activation of protein C (in words): purified polypeptide from COS-1, calcium ion concentrations of 0 to 5 mM; for amount of activated protein C with reaction time (in words): from D71 strain. The procedure: 5 μl of the supernatant of the culture of COS-1 cells is transformed by each of plasmids pSV2TMD7 and pSV2TMD8, 3 μl of thrombin (manufactured and sold by Sigma Chemical Company, catalog No. T-6759, 20 ng/μl), 5 μl of 10×Assay Buffer containing 1M NaCl, 30 mM CaCl2, 1% calf serum albumin and 0.5M tris-HCl buffer (pH 8.5) and 29.5 μl of distilled water are mixed together and allowed to stand at 37° C. for 5 minutes, followed by the addition of 7.5 μl protein C (derived from bovine, 0.2 μg/μl) to the mixture. The reaction is conducted at 37° C. for 30 minutes, and terminated by adding 6.25 μl of a stop solution (20 mM tris-HCl buffer, pH7.5, containing 100 mM NaCl, 0.3A280 anti-thrombin III and 100 μg/ml heparin).
The activity of activated protein C is measured by first adding 10 μl of Boc-Leu-Ser-Thr-Arg-MCA (manufactured and sold by Peptide Institute, The Foundation (Japan), 5 mg/ml), 5 μl of 5M CsCl and 495 μl of a substrate reaction buffer (50 mM tris-HCl buffer containing 100 mM NaCl (pH 8.5)), next allowing the reaction to proceed at 37° C. for 20 minutes, then terminating the reaction by adding 55 μl of acetic acid, and finally measuring the concentration of liberated AMC ([…]) by means of a spectrofluorometer (model RF-540, manufactured and sold by Shimadzu Corporation, Japan) at an excitation wavelength of 380 nm and an emission wavelength of 440 nm. The obtained fluorescence intensity is compared with the fluorescence intensity of a solution having a known AMC concentration to determine the amount of the liberated AMC. The value obtained by deducting from this amount the amount of AMC in the case where an aqueous solution containing no polypeptide of the present invention is added, represents the activity of the polypeptide to promote the thrombin-catalyzed activation of protein C. The activity to produce 1 nM of activated protein C per ml of reaction mixture and per minute is defined as 1 u (unit).
(§1) With respect to the polypeptide solutions (0.4 μg/ml) purified and quantitated in Example 1-(5)-(d), the activity of polypeptides to promote the thrombin-catalyzed activation of protein C is measured according to the method described in Example 1-(3). The CaCl2 concentration of 10×Assay buffer is adjusted so that the activities at calcium ion concentrations of 0 to 5 mM are determined. Also, with respect to protein C having no Gla domain (hereinafter referred to as "GDPC") which is prepared by chymotrypsin treatment according to the method of N. L. Esmon [J. Biol. Chem. Vol. 258, pp. 5548-5553 (1983)]and which is used instead of protein C, the activity measurement is carried out within the same range of calcium concentration.

The target of data set [3] is T2, thrombin-catalyzed activation of GDPC (protein C having no Gla domain) (Homo sapiens, UniProt P00734).
T2 construct: 3 μl of thrombin (manufactured and sold by Sigma Chemical Company, catalog No. T-6759, 20 ng/μl); purchased Sigma Chemical Company T-6759
Nature of the data set: Same assay with protein C having no Gla domain (GDPC) instead of protein C. Type of data set: biochemical. The settings on record: calcium ion concentrations of 0 to 5 mM. The procedure:
as §1

For data set [4], the target named is T1, thrombin-catalyzed activation of protein C. Nature of the data set: Activated protein C formation against reaction time with purified polypeptide (Example 4-(6)). Format: biochemical. The conditions noted are these: polypeptide purified from Acremonium chrysogenum strains D71 and M31 (Example 6(4)). The procedure:
To 0.02M Tris-HCl buffer (pH 8.5) containing 0.1M NaCl, 0.5 mM CaCl2 and 10 mg/ml BSA are added 50 μg/ml protein C, 5 nM thrombin and 5 nM of each of the purified polypeptides of the present invention, and reacted at 37° C. To each of the reaction mixtures are added 300 μg/ml antithrombin III (manufactured and sold by Sigma Chemical Company, U.S.A.) and 5 mM EDTA to terminate the reaction. Then, the amount of the activated protein C produced by the reaction is determined by the method described in Example 1-(3) in which a synthetic substrate is used.

Data set [5] relates to thrombin-catalyzed platelet aggregation. Nature of the data set: Platelet aggregation-inhibiting activity (Platelet Rich Plasma, HEMA TRACER IV). The conditions noted are these: polypeptide purified from Acremonium chrysogenum (Example 6(4)). Format: cell-based. Here is the method:
The activity of each of the polypeptides of the present invention to inhibit the thrombin-catalyzed platelet aggregation is evaluated using platelet aggregation measuring apparatus HEMA TRACER IV (manufactured and sold by NIKO Bioscience, Inc., Japan). Measurement is carried out according to the manual attached thereto. When 40 μl of a 20 NIH unit/ml thrombin solution (manufactured and sold by SIGMA Chemical Co., U.S.A., T 6759) is added to 180 μl of a Platelet Rich Plasma (PRP) platelet solution (3×10^5 cells/μl) and incubated, the aggregation of platelets occurs. […] The aggregation of platelets is determined on the basis of the transparency, assuming the transparency of Platelet Poor Plasma (PPP) solution as 100%. The ratio of platelet aggregation is plotted against the incubation time (0 min: the time when thrombin or a mixture of thrombin and one of the polypeptides is added to the PRP solution). It is confirmed that the platelet aggregation is inhibited when one of the polypeptides of the present invention is added.

Data set [6] deals with thrombin-catalyzed conversion of fibrinogen to fibrin (Homo sapiens, UniProt P00734). Nature of the data set: Anticoagulating activity: clotting time of a fibrinogen solution. Format: biochemical. The settings on record: polypeptide purified from Acremonium chrysogenum (Example 6(4)). Here is the method: The activity of each of the polypeptides of the present invention to inhibit the thrombin-catalyzed conversion of fibrinogen to fibrin so as to inhibit blood coagulation, is determined by measuring clotting time using Coagulometer KC-10A (manufactured and sold by Heinrich Amelung A.G., Germany). Illustratively stated, to 0.05M Tris-HCl buffer (pH 7.5) containing 5 mM CaCl2 and 0.1M NaCl is added 3.0 μg of fibrinogen (Fraction I, manufactured and sold by Sigma Chemical Company, U.S.A.). To the resultant mixture is added 0 to 50 nM of each of the purified polypeptides of the present invention. Then, 10 nM thrombin is added to the mixture in such an amount that the total amount of the mixture becomes 0.4 ml, and then the coagulation time of the mixture is measured.

Turning to “D123Asp: polypeptide of amino acid residues up to the 516th position of human thrombomodulin (FIG. 55), expressed from pSV2TMD1”, in data set [1], the “production of activated protein C” value amounted to 18.6 pmol. Further, in data set [2], the “calcium ion concentration at which the activity is highest” value fell in the range of 0.4 to 0.5 mM and the “activity to promote the thrombin-catalyzed activation of protein C (in words)” value is on record as “high activity”. Further, the “activity in the activation of GDPC (in words)” value in data set [3] is on record as “low activity”.
In the case of “E456Asp: polypeptide of the 367th to 480th amino acid residues of human thrombomodulin, from cells transfected with pSV2TMD7 or Acremonium strain D71”, the “production of activated protein C” value in data set [1] is reported as 18.3 pmol. Besides, the Specific activity in data set [2] (COS-1 culture supernatant, activity per amount of polypeptide by ELISA) is 5809 u/mg. For the same substance, the “calcium ion concentration at which the activity is highest” value in data set [2] is 0.4 to 0.5 mM. For the same substance, in data set [2] (deletion mutants expressed in COS-1 cells), the “specific activity (in words)” value is “same level of specific activity as that of the 115-amino acid polypeptide”. The “amount of activated protein C with reaction time (in words)” value in data set [2] (purified by DIP-thrombin column (Example 8(2))) is “increased with the lapse of the reaction time”; in data set [2] (purified by anti-TM monoclonal antibody column 1 (Example 8(4))) it was “increased with the lapse of reaction time”; in data set [2] (purified by anti-TM monoclonal antibody column 2 (Example 8(5))), “increased with lapse of reaction time”; in data set [4], “increased with the lapse of reaction time”. In data set [2], the “activity to promote the thrombin-catalyzed activation of protein C (in words)” value is given as “high activity”. This substance gave an Activity in data set [2] (supernatant of culture of COS-1 cells transformed with the plasmid, 1 u = 1 nM activated protein C per ml per minute) of 1210 u/ml. For the same substance, in data set [3], the “activity in the activation of GDPC (in words)” value is “low activity”. In data set [5], the “thrombin-catalyzed platelet aggregation (in words)” value is reported as “inhibited”. Further, the “clotting time of fibrinogen solution against amount of polypeptide (in words)” value in data set [6] is “the longer the clotting time”.

For the origin of these results see patent US5574007A, “Polypeptide capable of interacting with thrombin” (Asahi Kasei Kogyo Kabushiki Kaisha, priority 1990, dated 1996).
